Literature values as cited in publication PMC11231610, “Fatty acid binding to the human transport proteins FABP3, FABP4, and FABP5 from a Ligand’s perspective” (The Journal of Biological Chemistry, 2024).

Molecular target: Cgi-58 (Mus musculus) (UniProt Q9DBL9)
Assay: MST

Chain of FABP4 (P04117 2-132): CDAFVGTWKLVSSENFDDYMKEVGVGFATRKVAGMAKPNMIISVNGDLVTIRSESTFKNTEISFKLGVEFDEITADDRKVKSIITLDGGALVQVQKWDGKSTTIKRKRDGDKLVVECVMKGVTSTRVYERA
Chain of Cgi-58 (Mus musculus) (Q9DBL9 whole entry): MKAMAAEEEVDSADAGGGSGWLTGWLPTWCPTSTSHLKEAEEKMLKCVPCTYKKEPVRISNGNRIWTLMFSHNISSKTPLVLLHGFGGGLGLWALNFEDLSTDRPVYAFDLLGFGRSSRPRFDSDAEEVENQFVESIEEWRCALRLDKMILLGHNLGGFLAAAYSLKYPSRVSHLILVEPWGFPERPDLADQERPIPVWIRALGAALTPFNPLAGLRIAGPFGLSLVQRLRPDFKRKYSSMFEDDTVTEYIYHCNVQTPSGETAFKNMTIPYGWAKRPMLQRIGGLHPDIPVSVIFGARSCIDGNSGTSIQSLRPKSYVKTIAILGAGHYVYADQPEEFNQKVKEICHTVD

Kd: 192 µM
Substance: FABP4 (from UniProt P04117)
